No end group written: not given here.
Target: GST-Raf(1-257) (human)
Test: peptide competition of Ras-GTP / GST-Raf co-precipitation

Binder: EDSYRKQVVIDGETC (not fully specified (N-terminus, C-terminus)) [Ras 37-51 peptide]
- IC50: 100 µM

Reference: US5763571, “Inhibiting protein interactions” (The General Hospital Corporation, dated 1998)
